# Laboratory results published in the supplement of paper PMC11316812.
# ± gives the standard deviation of the averaged measurements.
# What was measured:
# hTERT-HMEC = test: percentage of EdU-negative (G0-arrested) nuclei per well, 72 h; higher = more G0 arrest; settings: reference: sequence is the full UniProt precursor, the tested protein was the secreted form or ectodomain
# MCF7 = test: as above; settings: reference: sequence is the full UniProt precursor, the tested protein was the secreted form or ectodomain
# [1] = protein concentration 0.0305714 µM
# [2] = protein concentration 0.305714 µM
# [3] = protein concentration 0.0187725 µM
# [4] = protein concentration 0.187725 µM
# [5] = protein concentration 0.0119275 µM
# [6] = protein concentration 0.119275 µM
# [7] = protein concentration 0.0357143 µM
# [8] = protein concentration 0.357143 µM
# [9] = protein concentration 0.0257143 µM
# [10] = protein concentration 0.257143 µM
# [11] = protein concentration 0.03125 µM
# [12] = protein concentration 0.3125 µM
# [13] = protein concentration 0.00575 µM
# [14] = protein concentration 0.0575 µM
# [15] = protein concentration 0.0225 µM
# [16] = protein concentration 0.01075 µM
# [17] = protein concentration 0.1075 µM
# 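Further: secreted proteins added to cultured cells, EdU pulse at the end, nuclei found by Hoechst imaging, EdU status from nuclear versus surrounding ring intensity ratio, PBS as neutral control.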
# Sequence of Q8IWL2 (chain, as listed by the source): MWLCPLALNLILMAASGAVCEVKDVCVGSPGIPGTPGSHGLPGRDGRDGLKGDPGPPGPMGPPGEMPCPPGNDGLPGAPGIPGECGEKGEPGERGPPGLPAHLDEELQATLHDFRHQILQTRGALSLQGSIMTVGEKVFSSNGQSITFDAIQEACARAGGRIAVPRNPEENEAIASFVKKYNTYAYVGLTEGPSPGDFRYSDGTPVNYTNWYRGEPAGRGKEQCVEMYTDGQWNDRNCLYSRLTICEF
substance,measurement,setting,value
MSDSKEPRLQQLGLLEEEQLRGLGFRQTRGYKSLAGCLGHGPLVLQLLSFTLLAGLLVQVSKVPSSISQEQSRQDAIYQNLTQLKAAVGELSEKSKLQEIYQELTQLKAAVGELPEKSKLQEIYQELTRLKAAVGELPEKSKLQEIYQELTWLKAAVGELPEKSKMQEIYQELTRLKAAVGELPEKSKQQEIYQELTRLKAAVGELPEKSKQQEIYQELTRLKAAVGELPEKSKQQEIYQELTQLKAAVERLCHPCPWEWTFFQGNCYFMSNSQRNWHDSITACKEVGAQLVVIKSAEEQNFLQLQSSRSNRFTWMGLSDLNQEGTWQWVDGSPLLPSFKQYWNRGEPNNVGEEDCAEFSGNGWNDDKCNLAKFWICKKSAASCSRDEEQFLSPAPATPNPPPA [Q9NNX6],percentage of EdU-negative,hTERT-HMEC; [1],4.977 ± 0.027%
same,percentage of EdU-negative,hTERT-HMEC; [2],17 ± 4.1%
same,percentage of EdU-negative,MCF7; [1],26.2 ± 1%
same,percentage of EdU-negative,MCF7; [2],26.5 ± 0.49%
MKEYVLLLFLALCSAKPFFSPSHIALKNMMLKDMEDTDDDDDDDDDDDDDDEDNSLFPTREPRSHFFPFDLFPMCPFGCQCYSRVVHCSDLGLTSVPTNIPFDTRMLDLQNNKIKEIKENDFKGLTSLYGLILNNNKLTKIHPKAFLTTKKLRRLYLSHNQLSEIPLNLPKSLAELRIHENKVKKIQKDTFKGMNALHVLEMSANPLDNNGIEPGAFEGVTVFHIRIAEAKLTSVPKGLPPTLLELHLDYNKISTVELEDFKRYKELQRLGLGNNKITDIENGSLANIPRVREIHLENNKLKKIPSGLPELKYLQIIFLHSNSIARVGVNDFCPTVPKMKKSLYSAISLFNNPVKYWEMQPATFRCVLSRMSVQLGNFGM [Q9BXN1],percentage of EdU-negative,hTERT-HMEC; [3],4.7 ± 0.51%
same,percentage of EdU-negative,hTERT-HMEC; [4],4.97 ± 0.19%
same,percentage of EdU-negative,MCF7; [3],26.18 ± 0.19%
same,percentage of EdU-negative,MCF7; [4],26.9 ± 3.7%
MQPLWLCWALWVLPLASPGAALTGEQLLGSLLRQLQLKEVPTLDRADMEELVIPTHVRAQYVALLQRSHGDRSRGKRFSQSFREVAGRFLALEASTHLLVFGMEQRLPPNSELVQAVLRLFQEPVPKAALHRHGRLSPRSARARVTVEWLRVRDDGSNRTSLIDSRLVSVHESGWKAFDVTEAVNFWQQLSRPRQPLLLQVSVQREHLGPLASGAHKLVRFASQGAPAGLGEPQLELHTLDLGDYGAQGDCDPEAPMTEGTRCCRQEMYIDLQGMKWAENWVLEPPGFLAYECVGTCRQPPEALAFKWPFLGPRQCIASETDSLPMIVSIKEGGRTRPQVVSLPNMRVQKCSCASDGALVPRRLQP,percentage of EdU-negative,hTERT-HMEC; [5],5.05 ± 0.39%
same,percentage of EdU-negative,hTERT-HMEC; [6],5.49 ± 0.4%
same,percentage of EdU-negative,MCF7; [5],25.8 ± 0.59%
same,percentage of EdU-negative,MCF7; [6],26.51 ± 0.11%
MCTKTIPVLWGCFLLWNLYVSSSQTIYPGIKARITQRALDYGVQAGMKMIEQMLKEKKLPDLSGSESLEFLKVDYVNYNFSNIKISAFSFPNTSLAFVPGVGIKALTNHGTANISTDWGFESPLFQDTGGADLFLSGVYFTGIIILTRNDFGHPTLKLQDCYAQLSHAHVSFSGELSVLYNSFAEPMEKPILKNLNEMLCPIIASEVKALNANLSTLEVLTKIDNYTLLDYSLISSPEITENYLDLNLKGVFYPLENLTDPPFSPVPFVLPERSNSMLYIGIAEYFFKSASFAHFTAGVFNVTLSTEEISNHFVQNSQGLGNVLSRIAEIYILSQPFMVRIMATEPPIINLQPGNFTLDIPASIMMLTQPKNSTVETIVSMDFVASTSVGLVILGQRLVCSLSLNRFRLALPESNRSNIEVLRFENILSSILHFGVLPLANAKLQQGFPLSNPHKFLFVNSDIEVLEGFLLISTDLKYETSSKQQPSFHVWEGLNLISRQWRGKSAP [Q8NFQ6],percentage of EdU-negative,hTERT-HMEC; [7],5.01 ± 0.62%
same,percentage of EdU-negative,hTERT-HMEC; [8],21.7 ± 0.58%
same,percentage of EdU-negative,MCF7; [7],25.1 ± 3.5%
same,percentage of EdU-negative,MCF7; [8],31.5 ± 2.8%
MIHTNLKKKFSCCVLVFLLFAVICVWKEKKKGSYYDSFKLQTKEFQVLKSLGKLAMGSDSQSVSSSSTQDPHRGRQTLGSLRGLAKAKPEASFQVWNKDSSSKNLIPRLQKIWKNYLSMNKYKVSYKGPGPGIKFSAEALRCHLRDHVNVSMVEVTDFPFNTSEWEGYLPKESIRTKAGPWGRCAVVSSAGSLKSSQLGREIDDHDAVLRFNGAPTANFQQDVGTKTTIRLMNSQLVTTEKRFLKDSLYNEGILIVWDPSVYHSDIPKWYQNPDYNFFNNYKTYRKLHPNQPFYILKPQMPWELWDILQEISPEEIQPNPPSSGMLGIIIMMTLCDQVDIYEFLPSKRKTDVCYYYQKFFDSACTMGAYHPLLYEKNLVKHLNQGTDEDIYLLGKATLPGFRTIHC,percentage of EdU-negative,hTERT-HMEC; [9],4.71 ± 0.62%
same,percentage of EdU-negative,hTERT-HMEC; [10],4.48 ± 0.15%
same,percentage of EdU-negative,MCF7; [9],23.7 ± 0.62%
same,percentage of EdU-negative,MCF7; [10],26.3 ± 1.7%
MSSAAGFCASRPGLLFLGLLLLPLVVAFASAEAEEDGDLQCLCVKTTSQVRPRHITSLEVIKAGPHCPTAQLIATLKNGRKICLDLQAPLYKKIIKKLLES,percentage of EdU-negative,hTERT-HMEC; [11],5.71 ± 0.5%
same,percentage of EdU-negative,hTERT-HMEC; [12],5.011 ± 0.0019%
same,percentage of EdU-negative,MCF7; [11],23.9 ± 0.55%
same,percentage of EdU-negative,MCF7; [12],26.1 ± 3.4%
MELQPPEASIAVVSIPRQLPGSHSEAGVQGLSAGDDSELGSHCVAQTGLELLASGDPLPSASQNAEMIETGSDCVTQAGLQLLASSDPPALASKNAEVTGTMSQDTEVDMKEVELNELEPEKQPMNAASGAAMSLAGAEKNGLVKIKVAEDEAEAAAAAKFTGLSKEELLKVAGSPGWVRTRWALLLLFWLGWLGMLAGAVVIIVRAPRCRELPAQKWWHTGALYRIGDLQAFQGHGAGNLAGLKGRLDYLSSLKVKGLVLGPIHKNQKDDVAQTDLLQIDPNFGSKEDFDSLLQSAKKKSIRVILDLTPNYRGENSWFSTQVDTVATKVKDALEFWLQAGVDGFQVRDIENLKDASSFLAEWQNITKGFSEDRLLIAGTNSSDLQQILSLLESNKDLLLTSSYLSDSGSTGEHTKSLVTQYLNATGNRWCSWSLSQARLLTSFLPAQLLRLYQLMLFTLPGTPVFSYGDEIGLDAAALPGQPMEAPVMLWDESSFPDIPGAVSANMTVKGQSEDPGSLLSLFRRLSDQRSKERSLLHGDFHAFSAGPGLFSYIRHWDQNERFLVVLNFGDVGLSAGLQASDLPASASLPAKADLLLSTQPGREEGSPLELERLKLEPHEGLLLRFPYAA,percentage of EdU-negative,hTERT-HMEC; [11],5.08 ± 0.89%
same,percentage of EdU-negative,hTERT-HMEC; [12],8.07 ± 1.1%
same,percentage of EdU-negative,MCF7; [11],23.1 ± 0.58%
same,percentage of EdU-negative,MCF7; [12],27.1 ± 0.54%
P0C0L4,percentage of EdU-negative,hTERT-HMEC; [13],4.91 ± 0.16%
same,percentage of EdU-negative,hTERT-HMEC; [14],5.66 ± 0.38%
same,percentage of EdU-negative,MCF7; [13],24.22 ± 0.12%
same,percentage of EdU-negative,MCF7; [14],26.1 ± 0.47%
MQPRRQRLPAPWSGPRGPRPTAPLLALLLLLAPVAAPAGSGDPDDPGQPQDAGVPRRLLQQAARAALHFFNFRSGSPSALRVLAEVQEGRAWINPKEGCKVHVVFSTERYNPESLLQEGEGRLGKCSARVFFKNQKPRPTINVTCTRLIEKKKRQQEDYLLYKQMKQLKNPLEIVSIPDNHGHIDPSLRLIWDLAFLGSSYVMWEMTTQVSHYYLAQLTSVRQWKTNDDTIDFDYTVLLHELSTQEIIPCRIHLVWYPGKPLKVKYHCQELQTPEEASGTEEGSAVVPTELSNF,percentage of EdU-negative,hTERT-HMEC; [15],5.08 ± 0.6%
same,percentage of EdU-negative,hTERT-HMEC; protein concentration 0.225 µM,4.8 ± 0.36%
same,percentage of EdU-negative,MCF7; [15],24.2 ± 1.8%
same,percentage of EdU-negative,MCF7; protein concentration 0.225 µM,28 ± 0.37%
Q8IWL2,percentage of EdU-negative,hTERT-HMEC; [11],5.36 ± 0.08%
same,percentage of EdU-negative,hTERT-HMEC; [12],6.18 ± 0.17%
same,percentage of EdU-negative,MCF7; [11],25.4 ± 0.46%
same,percentage of EdU-negative,MCF7; [12],26.7 ± 0.54%
MEKMLAGCFLLILGQIVLLPAEARERSRGRSISRGRHARTHPQTALLESSCENKRADLVFIIDSSRSVNTHDYAKVKEFIVDILQFLDIGPDVTRVGLLQYGSTVKNEFSLKTFKRKSEVERAVKRMRHLSTGTMTGLAIQYALNIAFSEAEGARPLRENVPRVIMIVTDGRPQDSVAEVAAKARDTGILIFAIGVGQVDFNTLKSIGSEPHEDHVFLVANFSQIETLTSVFQKKLCTAHMCSTLEHNCAHFCINIPGSYVCRCKQGYILNSDQTTCRIQDLCAMEDHNCEQLCVNVPGSFVCQCYSGYALAEDGKRCVAVDYCASENHGCEHECVNADGSYLCQCHEGFALNPDKKTCTKIDYCASSNHGCQHECVNTDDSYSCHCLKGFTLNPDKKTCRRINYCALNKPGCEHECVNMEESYYCRCHRGYTLDPNGKTCSRVDHCAQQDHGCEQLCLNTEDSFVCQCSEGFLINEDLKTCSRVDYCLLSDHGCEYSCVNMDRSFACQCPEGHVLRSDGKTCAKLDSCALGDHGCEHSCVSSEDSFVCQCFEGYILREDGKTCRRKDVCQAIDHGCEHICVNSDDSYTCECLEGFRLAEDGKRCRRKDVCKSTHHGCEHICVNNGNSYICKCSEGFVLAEDGRRCKKCTEGPIDLVFVIDGSKSLGEENFEVVKQFVTGIIDSLTISPKAARVGLLQYSTQVHTEFTLRNFNSAKDMKKAVAHMKYMGKGSMTGLALKHMFERSFTQGEGARPLSTRVPRAAIVFTDGRAQDDVSEWASKAKANGITMYAVGVGKAIEEELQEIASEPTNKHLFYAEDFSTMDEISEKLKKGICEALEDSDGRQDSPAGELPKTVQQPTESEPVTINIQDLLSCSNFAVQHRYLFEEDNLLRSTQKLSHSTKPSGSPLEEKHDQCKCENLIMFQNLANEEVRKLTQRLEEMTQRMEALENRLRYR,percentage of EdU-negative,hTERT-HMEC; [16],5.94 ± 0.34%
same,percentage of EdU-negative,hTERT-HMEC; [17],6.49 ± 0.6%
same,percentage of EdU-negative,MCF7; [16],29.2 ± 1.9%
same,percentage of EdU-negative,MCF7; [17],24.3 ± 0.75%
MRLPRRAALGLLPLLLLLPPAPEAAKKPTPCHRCRGLVDKFNQGMVDTAKKNFGGGNTAWEEKTLSKYESSEIRLLEILEGLCESSDFECNQMLEAQEEHLEAWWLQLKSEYPDLFEWFCVKTLKVCCSPGTYGPDCLACQGGSQRPCSGNGHCSGDGSRQGDGSCRCHMGYQGPLCTDCMDGYFSSLRNETHSICTACDESCKTCSGLTNRDCGECEVGWVLDEGACVDVDECAAEPPPCSAAQFCKNANGSYTCEECDSSCVGCTGEGPGNCKECISGYAREHGQCADVDECSLAEKTCVRKNENCYNTPGSYVCVCPDGFEETEDACVPPAEAEATEGESPTQLPSREDL [Q6UXH1],percentage of EdU-negative,hTERT-HMEC; [15],4.4 ± 0.85%
same,percentage of EdU-negative,hTERT-HMEC; protein concentration 0.225 µM,6.12 ± 0.13%
same,percentage of EdU-negative,MCF7; [15],23.9 ± 1.1%
same,percentage of EdU-negative,MCF7; protein concentration 0.225 µM,26 ± 1.1%
